As usually defined, the Kd is the equilibrium constant for the complex coming apart.

The target of experiment [1] is T1, His-tagged human CD38 (ACRO Biosystems CD8-H5224) (human, UniProt P28907 43-300).
T1 construct: bought protein; used for ELISA coating and as SPR analyte; not shown: His tag
The experiment can be described thus: SPR (second run), His-tagged CD38.

The target in experiment [2] is T2, His-tagged cynomolgus monkey CD38 (ACRO Biosystems, CD8-05223 [sic]) (cynomolgus monkey, UniProt Q5VAN0 43-301).
T2 construct: bought protein; used for ELISA coating and as SPR analyte; not shown: His tag
The experiment can be described thus: SPR (second run), His-tagged CD38.

The target in experiment [3] is T3, His-tagged mouse CD38 (ACRO Biosystems CD8-M5223) (mouse, UniProt P56528 45-304).
T3 construct: bought protein; used for ELISA coating and as SPR analyte; also called Murine; not shown: His tag
T3 sequence (looked up): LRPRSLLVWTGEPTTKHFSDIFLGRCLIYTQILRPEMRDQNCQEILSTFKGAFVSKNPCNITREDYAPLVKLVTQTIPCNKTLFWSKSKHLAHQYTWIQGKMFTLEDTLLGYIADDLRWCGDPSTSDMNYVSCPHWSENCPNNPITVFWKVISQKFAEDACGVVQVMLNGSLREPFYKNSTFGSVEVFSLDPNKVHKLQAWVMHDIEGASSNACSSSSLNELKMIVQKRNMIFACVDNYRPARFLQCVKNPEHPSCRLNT
The experiment can be described thus: SPR (second run), His-tagged CD38.

In experiment [4] the target is T1, His-tagged human CD38 (ACRO Biosystems …). Kind of experiment: ELISA, 1 ug/ml scFv-Fc, coated His-tagged CD38.
Experiment [5] addresses T2, His-tagged cynomolgus monkey CD38 (ACRO …). Kind of experiment: ELISA, 1 ug/ml scFv-Fc, coated His-tagged CD38. For orientation: ELISA stands for enzyme-linked immunosorbent assay.
The target in experiment [6] is T3, His-tagged mouse CD38 (ACRO Biosystems …). Kind of experiment: ELISA, 1 ug/ml scFv-Fc, coated His-tagged CD38.
The target of experiment [7] is T4, Human CD38 on transiently transfected Expi293 cells (Origene SC321273) (human, UniProt P28907 1-300).
T4 construct: whole, on cells
Kind of experiment: flow cytometry, 10 ug/ml scFv-Fc, transfected Expi293 cells. On the technique in general: A flow cytometer gives signals particle by particle.

The target in experiment [8] is T5, Murine CD38 on transiently transfected Expi293 cells (Origene MC208001) (murine, UniProt P56528 1-304).
T5 construct: whole, on cells
T5 sequence (looked up): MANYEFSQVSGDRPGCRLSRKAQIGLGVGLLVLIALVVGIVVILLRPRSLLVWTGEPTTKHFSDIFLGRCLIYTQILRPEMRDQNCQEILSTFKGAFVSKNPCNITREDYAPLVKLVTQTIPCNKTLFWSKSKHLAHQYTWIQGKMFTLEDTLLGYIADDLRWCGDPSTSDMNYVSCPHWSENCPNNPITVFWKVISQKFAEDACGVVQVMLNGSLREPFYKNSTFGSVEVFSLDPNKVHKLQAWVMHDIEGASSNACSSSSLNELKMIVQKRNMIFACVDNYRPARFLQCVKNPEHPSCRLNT
The experiment is described as above.

B1: 40617p1.2.H1 (scFv, V domains shown)
VH: EVQLLESGGGLVQPGGSLRLSCAASGFTFTNYWMTWVRQAPGKGLEWVSAISSYGGNYMYYADSVKGRFTISRDNSENTLYLQMNSLRAEDTAVYYCAKDWDDGMDVWGQGTTVTVSS
VL: EIVMTQSPAVLSVSPGERATLSCRASQTVGSKLAWYQQKPGQAPRLLIYGVSTRAAGIPDRFSGSGSGTDFTLTISSLQSEDFAVYYCQQYYDLPPYSFGGGTKVEIK
With B1, the equilibrium dissociation constant (Kd) in experiment [1] is 9.71 nM; in experiment [2], 33.8 nM; in experiment [3], 73 nM.

B2: 40769p2.2.D9 scFv-Fc (scFv, V domains shown)
VH: EVQLLESGGGLVQPGGSLRLSCAGSGFTFSDYWMSWVRQAPGKGLEWVSTISITAGIIYYADSVKGRFTISRDNSKNTLYLQMNSLRAEDTAVYYCAKDNWNDYYGMDVWGQGTTVTVSS
VL: QSVLTQPPSASGTPGQRVTVSCSGSRSNIRDNYVYWYQQVPGTAPKLLIYKDDQRPSGVPDRFSGSKSGTSASLVISGLQSEDEADYYCATWDGSLNARVFGGGTKLTVL
notes: scFv-Fc
In the case of B2, the ELISA signal in experiment [4] was found to be 1.51; in experiment [5], 1.47; in experiment [6], 0.043. Also, the FACS percent gated in experiment [7] worked out at 92.6%; in experiment [8], 2.87%.

B3: 40769p2.2.A9 scFv-Fc (scFv, V domains shown)
VH: EVQLLESGGGLVQPGGSLRLSCTASGITFSRFNMFWVRQAPGKGLEFVASIRDDGSWTYYADSVKGQFTISRDNSKNTLYLQMNSLRAEDTAVYYCAKDYNSKDFIYHYVMDVWGQGTTVTVSS
VL: QSVLTQPPSASGTPGQRVTISCSGRNSNIGNNVVNWYQQLPGTAPKLLIYRNQERPSGVPDRFSGSKSGTSASLAISGLQSEDEADYYCSTWDDSLNGWVFGGGTKLTVL
notes: scFv-Fc
On to B3, for which the ELISA signal worked out at 1.55 in experiment [4], 1.67 in experiment [5] and 0.044 in experiment [6]. In addition, the FACS percent gated in experiment [7] is 91.2%; in experiment [8] it was 1.57%.

B4: 40769p1.1.B10 (scFv, V domains shown)
VH: EVQLLESGGGLVQPGGSLRLSCTASGITFSRFNMFWVRQAPGKGLEFVASIRDDGSWTYYADSVKGRFTISRDNSKNTLYLQMNSLRAEDTAVYYCAKDYNSKDFIYHYVMDVWGQGTTVTVSS
VL: QSVLTQPPSASGTPGQRVTISCSGRNSNIGNNVVNWYQQLPGTAPKLLIYRNQERPSGVPDRFSGSKSGTSASLAISGLQSEDEADYYCSTWDDSLNGWVFGGGTKLTVL
Consider B4, for which the results for the dissociation constant (Kd) in experiment [1], in experiment [2] and in experiment [3] were 29.6 nM, 6030 nM and 501 nM, respectively.

B5: 40769p1.2.B10 (scFv, V domains shown)
VH: EVQLLESGGGLVQPGGSLRLSCPASGFDFSSYWMTWVRQAPGKGLEWVSTITDSGGRAWYADSVRGRFTISRDNSKNTLYLQMNSLRAEDTAVYYCARDTPKTYYYYAMDVWGQGTTVTV
VL: QSALTQPPSASGTPGQRVTISCSGSSSNIQYSYVSWYQQLPGTAPKLLIYNNVQRPSGVPDRFSGSKSGTSASLAISGLQSEDEADYYCATWDESLLGLWVFGGGTKLTVL
In the case of B5, the Kd in experiment [1] came out at 2.49 nM; in experiment [2], 24.3 nM; in experiment [3], 1660 nM.

B6: 40769p2.2.A5 scFv-Fc (scFv, V domains shown)
VH: EVQLLESGGGLIQPGGSLRLSCTASGFDFSSYGMHWVRQAPGKGLEWVGIISDTGGTTYYGDSVKGRFTISRDNSKSTLYLQMNSLRAEDTALYYCASYIMDVWGQGTTVTVSS
VL: QSVLTQPPSASGTPGQRVTISCSGSNSNVGDNAVYWYQQLPGTAPKLLFYGTNRRPSGVPDRFSGSKSGTSASLAISGLQSEDEADYYCAAWDDSLNAWVFGGGTKLTVL
notes: scFv-Fc
As for B6, the ELISA signal in experiment [4] stood at 1.76; in experiment [5], 1.6; in experiment [6] it was 1.27. Besides, the values for the FACS percent gated in experiment [7] and in experiment [8] were 90.5% and 35.5%, respectively.

B7: 40769p1.1.B12 (scFv, V domains shown)
VH: EVQLLESGGGLIQPGGSLRLSCTASGFDFSSYGMHWVRQAPGKGLEWVGIISDSGGTTYYADSVKGRFTISRDNSKNTMYLQMNSLRAEDTALYYCASYIMDVWGQGITVTVSS
VL: QSVLTQPPSASGTPGQRVTISCSGSSSNVGGNSVYWYQQLPGTAPKLLFYGNHRRPSGVPDRFSGSKSGTSASLAISGLQSEDEADYYCAVWDDSLNAWVFGGGTKLTVL
For B7, the Kd is 91 nM in experiment [1], 582 nM in experiment [2] and 249 nM in experiment [3].

B8: 40769p2.2.E12 scFv-Fc (scFv, V domains shown)
VH: EVQLLESGGGLIQPGGSLRLSCTASGFDFSSYGMHWVRQAPGKGLEWVGIISDTGGTTYYGDSVKGRFTISRDNSKSTLYLQMNSLRAEDTALYYCASYIMDVWGQGTTVTVSS
VL: QSVLTQPPSASGTPGQRVTISCSGSNSNVGDNAVYWYQQPPGTAPKLLFYGTNRRPSGVPDRFSGSKSGTSASLAISGLQSEDEADYYCAAWDDSLNAWVFGGGTKLTVL
notes: scFv-Fc
In the case of B8, the results for the ELISA signal in experiment [4], in experiment [5] and in experiment [6] were 1.67, 1.59 and 1.26, respectively. Further, the FACS percent gated in experiment [7] came out at 91.6%; in experiment [8], 35.9%.

B9: 40769p2.2.D3 scFv-Fc (scFv, V domains shown)
VH: EVQLLESGGGLIQPGGSLRLSCTASGFDFSSYGMHWVRQAPGKGLEWVGIISDSGGTTYYADSVKGRFTISRDNSKNTLYLQMNSLRAEDTALYYCASYIMDVWGQGITVTVSS
VL: QSVLTQPPSASGTPGQRVTISCSGSNSNVGVNSVYWYQQLPGTAPKLLIYGSGRRPSGVPDRFSVSKSGTSASLAISGLQSEDEADYYCAAWDGGLNAWVFGGGTKLTVL
notes: scFv-Fc
For B9, the ELISA signal in experiment [4] worked out at 1.48; in experiment [5], 1.34. Besides, the FACS percent gated in experiment [7] was determined as 83.5%; in experiment [8], 13.1%.

B10: 40769p1.2.C9 (scFv, V domains shown)
VH: EVQLLESGGGLVQPGGSLRLSCAASGFTFSSHDMNWVRQAPGKGLEWVSTITTTGGTYYTDSVKGRFTISRDNSKNTIYLQMTSLRAEDTAVYYCTKHYSMDVWGQGTTVTVSS
VL: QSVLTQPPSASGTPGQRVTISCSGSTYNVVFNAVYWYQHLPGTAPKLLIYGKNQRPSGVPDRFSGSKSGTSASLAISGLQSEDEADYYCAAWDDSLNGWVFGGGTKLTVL
As to B10, the Kd in experiment [1] stood at 96.2 nM; in experiment [2], 200 nM; in experiment [3], 55 nM.

B11: 40769p2.2.A6 scFv-Fc (scFv, V domains shown)
VH: EVQLLESGGGLVQPGGSLRLSCAASGFTFSDYEMNWVRQAPGKGLEWVSAISITGSWTYYADSVKGRFTISRDNSENTLYLQMNNLRAEDTAVYYCANYKSYYGMDVWGRGTTVTVSS
VL: QSVLTQPPSASGTPGQRVTISCSGSRSNIRNNLVNWYQQLPGTAPKLLIYNTQRPSGVPDRFSGSKSGTSASLAISGLQSEDEADYYCASWDASLNAWVFGGGTKLTVL
notes: scFv-Fc
Turning to B11, the figures for the ELISA signal in experiment [4], in experiment [5] and in experiment [6] were 1.75, 1.62 and 0.043, respectively. Besides, the FACS percent gated stood at 92.2% in experiment [7] and 2.43% in experiment [8].

B12: 40769p2.2.C11 scFv-Fc (scFv, V domains shown)
VH: EVQLLESGGGLVQPGGSLRLSCAASGFTFSDYEMNWVRQAPGKGLEWVSSISITGSWTYYADSVKGRFTISRDNSKNTLYLQMNNLRAEDTAVYYCANYKSYYGMDVWGHGTTVTVSS
VL: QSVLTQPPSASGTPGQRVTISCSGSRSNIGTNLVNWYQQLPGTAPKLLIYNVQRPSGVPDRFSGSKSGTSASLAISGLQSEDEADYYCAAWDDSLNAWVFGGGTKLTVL
notes: scFv-Fc
In the case of B12, the results for the ELISA signal in experiment [4], in experiment [5] and in experiment [6] were 1.53, 1.52 and 0.043, respectively. Moreover, the FACS percent gated was found to be 92.8% in experiment [7] and 1.26% in experiment [8].

B13: 40617p1.2.B4 (scFv, V domains shown)
VH: EVQLLESGGGFVQPGGSLRLSCAASGFTFTNYVMNWVRQAPGKGLEWVSSISISGGRYTWYADSVKGRFTISRDNSRNTLYLQMNSLRAEDTAIYYCAREMNTYSFPMDVWGQGTTVTVSS
VL: EIVLTQSPGTLSLSPGERATLNCRASQNVRSDLAWYQQKPGQAPRLLIYDASNRATGIPDRFSGSGSGTDFSLTISRLEPEDFAVYYCQQYYDWPPYTFGGGTKVEIK
With B13, the Kd was found to be 36.1 nM in experiment [1], 149 nM in experiment [2] and 3.33 nM in experiment [3].

Values taken from patent US20220306762A1 (CRYSTAL BIOSCIENCE, published 2022).
